In experiment [1] the target is GPNMB (CG56972) as expressed by human cell lines (human) (UniProt Q14956). The experiment can be described thus: FACS on UACC-62 cells, antibody 1 ug/mL.
Experiment [2] shares this target. The experiment can be described thus: flow cytometry on SK-MEL-2 cells, anti human IgG PE; control sample.
The target is the same in experiment [3]. The experiment can be described thus: flow cytometry on HEK293 cells transfected with GPNMB plasmid, secondary antibody alone (background); on empty-vector cells printed as 5.86.
The target is the same in experiment [4]. In words: flow cytometry on HEK293 cells transfected with GPNMB plasmid, PE-conjugated secondary antibody; the same sample on empty-vector cells is printed as 7.96.

Chain of GPNMB (CG56972) as expressed by human cell lines (human) (Q14956 23-492): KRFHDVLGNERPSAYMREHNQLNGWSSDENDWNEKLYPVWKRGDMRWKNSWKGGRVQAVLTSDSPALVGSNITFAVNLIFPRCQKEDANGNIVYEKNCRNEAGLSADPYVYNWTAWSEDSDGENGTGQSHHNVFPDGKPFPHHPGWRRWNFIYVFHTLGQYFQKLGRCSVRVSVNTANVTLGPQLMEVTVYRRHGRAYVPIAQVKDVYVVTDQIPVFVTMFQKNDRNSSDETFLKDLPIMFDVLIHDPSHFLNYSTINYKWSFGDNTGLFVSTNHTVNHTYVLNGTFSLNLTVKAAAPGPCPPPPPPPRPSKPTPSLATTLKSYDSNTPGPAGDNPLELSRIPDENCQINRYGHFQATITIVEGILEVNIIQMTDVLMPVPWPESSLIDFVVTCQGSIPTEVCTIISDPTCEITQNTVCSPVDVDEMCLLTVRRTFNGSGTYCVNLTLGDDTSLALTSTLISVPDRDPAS

For the substance CR011.2.6.2 (antibody), the Geo Mean Ratio (relative to pK16) in experiment [1] is 1.9. In experiment [2], Control (antibody) gave a Geo Mean of 3.03 and a Median of 2.84. Consider Secondary Ab-PE (antibody), for which the Geometric mean in experiment [3] is 7.69.

The substance isotype-matched control IgG2 antibody yielded a Geometric mean in experiment [4] of 8.63.

Source of the values: patent US20130244255A1, “ANTIBODIES DIRECTED TO GPNMB AND USES THEREOF” (priority 2006, published 2013).
